Legend:
[1] = target: T1, His-MoSPAB1ΔSP (Magnaporthe oryzae, UniProt G4N0C3 22-298); assay: competition; […], buffer not stated; […]; settings: protein: recombinant; tags: His, ProS2 (pCold-ProS2); blunt
[2] = target: T1, His-MoSPAB1ΔSP; assay: EMSA; […], buffer not stated; […]; settings: protein: recombinant; tags: His, ProS2 (pCold-ProS2); label: 5' biotin (both strands); blunt

Binder | binding result [1] | binding result [2]
probe 2 mutant competitor (dsDNA) DNA 1: ACTAAAGAGAGCTGCTGCTACGTACTA DNA 2: TAGTACGTAGCAGCAGCTCTCTTTAGT | no binding | 
Bsr-d1 promoter probe 3 (dsDNA) DNA 1: CTACGTACTATACAGCTTGATTAATTAG DNA 2: CTAATTAATCAAGCTGTATAGTACGTAG |  | binds
Bsr-d1 promoter probe 4 (dsDNA) DNA 1: AGCTTGATTAATTAGGTTTTACGACGAC DNA 2: GTCGTCGTAAAACCTAATTAATCAAGCT |  | binds
Bsr-d1 promoter probe 5 (dsDNA) DNA 1: GGTTTTACGACGACGGCAACGGGGACAGAT DNA 2: ATCTGTCCCCGTTGCCGTCGTCGTAAAACC |  | binds
Bsr-d1 promoter probe 1 (dsDNA) DNA 1: AATCCCATCAAATCATCCACCGCTCGCT DNA 2: AGCGAGCGGTGGATGATTTGATGGGATT |  | binds
Bsr-d1 promoter probe 2 (dsDNA) DNA 1: ACCGCTCGCTGCTGCTGCTACGTACTA DNA 2: TAGTACGTAGCAGCAGCAGCGAGCGGT |  | binds
probe 1 mutant competitor (dsDNA) DNA 1: AATCCCATCAAATCATCCAAAAAAAAAT DNA 2: ATTTTTTTTTGGATGATTTGATGGGATT | no binding | 

Reference: paper PMC10728069
